In article PMC12290011, “Pseudomonadal itaconate degradation gene cluster encodes enzymes for methylsuccinate utilization” (Communications Biology, 2025):

How the values were obtained:
C[C@H](CC(=O)O)C(=O)O = experiment: purified protein; details: 1 mM succinyl-CoA, pH 7.0, 5 mM MgCl2, 30 °C
Text: (§4) UHPLC assay of CoA-esters on P. aeruginosa itaconate CoA transferase
C=C(CC(=O)O)C(=O)O = experiment: purified protein; details: 1 mM succinyl-CoA, pH 7.0, 5 mM MgCl2, 30 °C
Text: as §4
C[C@@H](CC(=O)O)C(=O)O = experiment: purified protein; details: 1 mM succinyl-CoA, pH 7.0, 5 mM MgCl2, 30 °C
Text: as §4

[1] = target: T1, Pa. xenovorans MmgE/PrpD family protein Bxe_B2582 (Paraburkholderia xenovorans, UniProt Q13R78); experiment: coupled assay with C. necator itaconate CoA transferase, UHPLC; format: biochemical; details: 2.5 mM substrate, pH 7.0, 5 mM MgCl2, 30 °C
T1 construct: pET16b, His-tagged, E. coli BL21(DE3), Ni-NTA purified
T1 sequence (Q13R78 1-494): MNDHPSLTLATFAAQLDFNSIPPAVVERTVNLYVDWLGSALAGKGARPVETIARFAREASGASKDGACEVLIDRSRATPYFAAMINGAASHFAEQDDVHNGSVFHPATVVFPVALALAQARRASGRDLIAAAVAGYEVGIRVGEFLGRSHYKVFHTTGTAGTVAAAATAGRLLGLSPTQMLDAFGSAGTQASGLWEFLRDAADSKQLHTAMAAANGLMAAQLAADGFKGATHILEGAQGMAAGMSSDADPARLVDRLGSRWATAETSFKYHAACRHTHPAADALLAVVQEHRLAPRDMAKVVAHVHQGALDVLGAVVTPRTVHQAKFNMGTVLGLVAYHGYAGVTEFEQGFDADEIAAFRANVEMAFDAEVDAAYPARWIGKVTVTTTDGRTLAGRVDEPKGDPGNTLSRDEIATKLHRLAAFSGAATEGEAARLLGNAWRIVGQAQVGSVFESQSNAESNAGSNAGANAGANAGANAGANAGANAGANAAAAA

[2] = target: T2, C. necator MmgE/PrpD family protein, (S)-(R)-methylsuccinate isomerase (Cupriavidus necator, UniProt Q0K3E6); experiment: as above; format: biochemical; details: 2.5 mM substrate, pH 7.0, 5 mM MgCl2, 30 °C
T2 construct: gene prpD2; synthetic codon-optimized gene in pET16b, His-tagged, E. coli BL21(DE3), Ni-NTA purified
T2 sequence (Q0K3E6 1-460): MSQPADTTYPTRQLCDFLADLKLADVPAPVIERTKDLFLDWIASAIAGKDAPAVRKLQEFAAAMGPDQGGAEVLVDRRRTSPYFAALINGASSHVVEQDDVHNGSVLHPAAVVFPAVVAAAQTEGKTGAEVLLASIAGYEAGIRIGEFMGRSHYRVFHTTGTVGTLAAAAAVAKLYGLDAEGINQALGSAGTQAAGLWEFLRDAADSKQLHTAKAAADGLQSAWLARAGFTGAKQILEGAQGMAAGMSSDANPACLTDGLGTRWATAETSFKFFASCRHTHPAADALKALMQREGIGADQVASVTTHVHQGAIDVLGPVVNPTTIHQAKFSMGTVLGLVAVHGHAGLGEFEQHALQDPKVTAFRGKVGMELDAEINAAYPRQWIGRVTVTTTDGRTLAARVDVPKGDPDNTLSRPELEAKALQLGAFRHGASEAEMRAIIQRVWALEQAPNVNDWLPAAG

[3] = target: T3, P. aeruginosa MmgE/PrpD family protein, (S)-(R)-methylsuccinate isomerase (Pseudomonas aeruginosa, UniProt Q9I564); experiment: as above; format: biochemical; details: 2.5 mM substrate, pH 7.0, 5 mM MgCl2, 30 °C
T3 construct: gene PA0881; synthetic codon-optimized gene in pET16b, His-tagged, E. coli BL21(DE3), Ni-NTA purified
T3 sequence (Q9I564 1-450): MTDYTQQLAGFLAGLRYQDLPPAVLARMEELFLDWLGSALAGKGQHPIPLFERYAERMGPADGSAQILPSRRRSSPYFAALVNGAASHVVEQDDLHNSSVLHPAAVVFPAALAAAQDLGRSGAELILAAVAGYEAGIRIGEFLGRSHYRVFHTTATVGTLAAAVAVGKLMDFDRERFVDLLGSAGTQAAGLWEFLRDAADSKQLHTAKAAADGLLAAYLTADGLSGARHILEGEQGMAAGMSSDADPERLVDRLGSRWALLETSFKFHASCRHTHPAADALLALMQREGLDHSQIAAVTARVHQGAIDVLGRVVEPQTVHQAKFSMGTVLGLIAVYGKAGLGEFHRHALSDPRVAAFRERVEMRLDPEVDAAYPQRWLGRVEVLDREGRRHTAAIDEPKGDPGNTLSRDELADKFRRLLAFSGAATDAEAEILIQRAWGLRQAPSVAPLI

[4] = substrate: C[C@@H](CC(=O)SCCNC(=O)CCNC(=O)[C@H](O)C(C)(C)COP(=O)(O)OP(=O)(O)OC[C@H]1O[C@@H](n2cnc3c(N)ncnc32)[C@H](O)[C@@H]1OP(=O)(O)O)C(=O)O; experiment: UHPLC assay of mesaconyl-CoA formation; format: biochemical, Pseudomonas aeruginosa; details: 1 mM phenazine methosulfate as electron acceptor, pH 7.0, 5 mM MgCl2, 30 °C
Text: (§1) UHPLC assay of mesaconyl-CoA formation on P. aeruginosa methylsuccinyl-C4-CoA dehydrogenase

[5] = substrate: C[C@H](CC(=O)SCCNC(=O)CCNC(=O)[C@H](O)C(C)(C)COP(=O)(O)OP(=O)(O)OC[C@H]1O[C@@H](n2cnc3c(N)ncnc32)[C@H](O)[C@@H]1OP(=O)(O)O)C(=O)O; experiment: UHPLC assay of mesaconyl-CoA formation; format: biochemical, Pseudomonas aeruginosa; details: 1 mM phenazine methosulfate as electron acceptor, pH 7.0, 5 mM MgCl2, 30 °C
Text: as §1

[6] = substrate: C[C@@H](CC(=O)SCCNC(=O)CCNC(=O)[C@H](O)C(C)(C)COP(=O)(O)OP(=O)(O)OC[C@H]1O[C@@H](n2cnc3c(N)ncnc32)[C@H](O)[C@@H]1OP(=O)(O)O)C(=O)O; experiment: UHPLC assay of mesaconyl-CoA formation; format: biochemical, Cupriavidus necator; details: 1 mM phenazine methosulfate as electron acceptor, pH 7.0, 5 mM MgCl2, 30 °C
Text: (§2) UHPLC assay of mesaconyl-CoA formation on C. necator methylsuccinyl-C4-CoA dehydrogenase

[7] = substrate: C[C@H](CC(=O)SCCNC(=O)CCNC(=O)[C@H](O)C(C)(C)COP(=O)(O)OP(=O)(O)OC[C@H]1O[C@@H](n2cnc3c(N)ncnc32)[C@H](O)[C@@H]1OP(=O)(O)O)C(=O)O; experiment: UHPLC assay of mesaconyl-CoA formation; format: biochemical, Cupriavidus necator; details: 1 mM phenazine methosulfate as electron acceptor, pH 7.0, 5 mM MgCl2, 30 °C
Text: as §2

purified protein = substrate: O=C(O)C[C@H](O)C(=O)O; experiment: purified protein; details: 1 mM succinyl-CoA, pH 7.0, 5 mM MgCl2, 30 °C
[8] = substrate: C[C@](O)(CC(=O)O)C(=O)O; experiment: UHPLC assay of CoA-esters; format: biochemical, Cupriavidus necator; details: 1 mM succinyl-CoA, pH 7.0, 5 mM MgCl2, 30 °C
Text: (§3) UHPLC assay of CoA-esters on C. necator itaconate CoA transferase

[9] = substrate: O=C(O)CCCC(=O)O; experiment: UHPLC assay of CoA-esters; format: biochemical, Cupriavidus necator; details: 1 mM succinyl-CoA, pH 7.0, 5 mM MgCl2, 30 °C
Text: as §3

[10] = substrate: C[C@H](CC(=O)O)C(=O)O; experiment: UHPLC assay of CoA-esters; format: biochemical, Cupriavidus necator; details: 1 mM succinyl-CoA, pH 7.0, 5 mM MgCl2, 30 °C
Text: as §3

[11] = substrate: C=C(CC(=O)O)C(=O)O; experiment: UHPLC assay of CoA-esters; format: biochemical, Cupriavidus necator; details: 1 mM succinyl-CoA, pH 7.0, 5 mM MgCl2, 30 °C
Text: as §3

[12] = substrate: CC(C)(COP(=O)(O)OP(=O)(O)OC[C@H]1O[C@@H](n2cnc3c(N)ncnc32)[C@H](O)[C@@H]1OP(=O)(O)O)[C@@H](O)C(=O)NCCC(=O)NCCSC(=O)CCC(=O)O; experiment: UHPLC assay of CoA-esters; format: biochemical, Cupriavidus necator; details: 10 mM itaconate, pH 7.0, 5 mM MgCl2, 30 °C
Text: as §3

[13] = substrate: C[C@@H](CC(=O)O)C(=O)O; experiment: UHPLC assay of CoA-esters; format: biochemical, Cupriavidus necator; details: 1 mM succinyl-CoA, pH 7.0, 5 mM MgCl2, 30 °C
Text: as §3

## P. aeruginosa itaconate CoA transferase (Pseudomonas aeruginosa PAO1)
C[C@H](CC(=O)O)C(=O)O
  Km: 600 ± 200 µM
  Vmax: 69.8 µmol/min/mg
  kcat/Km: 88000 M⁻¹ s⁻¹
C=C(CC(=O)O)C(=O)O
  Km: 800 ± 300 µM
  Vmax: 73 µmol/min/mg
  kcat/Km: 66300 M⁻¹ s⁻¹
C[C@@H](CC(=O)O)C(=O)O
  Km: 17800 ± 8000 µM
  Vmax: 54.3 µmol/min/mg
  kcat/Km: 2200 M⁻¹ s⁻¹

## C[C@@H](CC(=O)O)C(=O)O [(S)-Methylsuccinate]
[1]
  coupled assay with C. necator itaconate CoA transferase, UHPLC: we tested the isomerase activity of the Pa. xenovorans MmgE/PrpD family protein Bxe_B2582
[2]
  coupled assay with C. necator itaconate CoA transferase, UHPLC: both MmgE/PrpD proteins catalyzed the isomerization of (S)-methylsuccinate to (R)-methylsuccinate
[3]
  coupled assay with C. necator itaconate CoA transferase, UHPLC: both MmgE/PrpD proteins catalyzed the isomerization of (S)-methylsuccinate to (R)-methylsuccinate

## C[C@H](CC(=O)O)C(=O)O [(R)-Methylsuccinate]
[1]
  coupled assay with C. necator itaconate CoA transferase, UHPLC: we tested the isomerase activity of the Pa. xenovorans MmgE/PrpD family protein Bxe_B2582
[2]
  coupled assay with C. necator itaconate CoA transferase, UHPLC: both MmgE/PrpD proteins catalyzed the isomerization of (S)-methylsuccinate to (R)-methylsuccinate
[3]
  coupled assay with C. necator itaconate CoA transferase, UHPLC: both MmgE/PrpD proteins catalyzed the isomerization of (S)-methylsuccinate to (R)-methylsuccinate

B1: P. aeruginosa methylsuccinyl-C4-CoA dehydrogenase (Pseudomonas aeruginosa PAO1) (protein)
chain: MNPNSEELNAIREGVRALCAEFDAAYWRRIDEQRGFPEAFVKALTDAGWLSAMIPEEYGGSGLGLAEASVILEEVNRCGGNSGTVHGQMYNMFTLLRNGSEAQKRFYLPKLASGELRLQSMGVTEPTTGTDTTKIKTTAVRKGDRYVINGQKVWISRIQHSDLMILLARTTPLAEVKRKSEGMSIFLVDLREAIGKGLTVQPIANMVNHETNELFFDNLEIPADSLIGEEGKGFRYILDGLNAERTLIAAECIGDGRWFIDKASHYARDRVVFGRPIGQNQGVQFPIAEAHIEVEAADLMRWRACQEYDAGLNAGASANMAKYLAAKASWEAANACLQTHGGFGFACEYDVERKFRETRLYQVAPISTNLILSYVAEHLLELPRSF
notes: synthetic codon-optimized gene in pET23a, His-tagged, E. coli BL21(DE3), Ni-NTA purified with FAD in buffers
[4]
  Km: 470 ± 130 µM
  Vmax: 2.8 µmol/min/mg
  kcat/Km: 4300 M⁻¹ s⁻¹
[5]
  Km: 590 ± 140 µM
  Vmax: 3.38 µmol/min/mg
  kcat/Km: 4100 M⁻¹ s⁻¹

B2: C. necator methylsuccinyl-C4-CoA dehydrogenase (Cupriavidus necator H16) (protein)
chain: MHAHQDPDQLYPEIREAVRDLCAGFDSAYWQRVEEQNAFPETFVQALTQAGWLSALIPEAYGGSGLSLTAASVIMEEINRSGGNSGACHGQMYVMGCLLRHGSEAQKQRWLPGIASGELRMQSMAVTEPTTGTDTTKLKTTAVRQGDKYIVNGQKVWISRVQHSDLMLLLARTTPLDQVKRKSEGLSVFVVDLRDAIGKGLTVKPIRNMVNHETNELFFDNLEVPAGNLIGEEGKGLKYILDGLNAERILIAAECIGDGYWFVERASNYARDRIVFDRPIGQNQAVQFPIARSYINVEAASLMRYKASQLFDAGKPCGKEANISKLLAADASWEAANVCLQTHGGFGFAAEYDIERKFRETRLYQVAPISTNLILSYVAEHVLELPRSF
notes: pET23b, His-tagged, E. coli BL21(DE3), Ni-NTA purified with FAD in buffers
[6]
  Km: 420 ± 140 µM
  Vmax: 0.69 µmol/min/mg
  kcat/Km: 1200 M⁻¹ s⁻¹
[7]
  Km: 360 ± 80 µM
  Vmax: 0.72 µmol/min/mg
  kcat/Km: 1500 M⁻¹ s⁻¹

B3: C. necator itaconate CoA transferase (Cupriavidus necator H16) (protein)
chain: MSHSPKGIRPLDGIRVVSLEHAVAAPFATRQLADLGARVIKIERPGVGDFARGYDQSVHGQASYFVWLNRGKESLTLDLKDREAQAILHRLLADADVLVQNLAPGAAVRMGLDFDSLHGKYDKLIVCDISGYGDSGPYRDKKAYDLLIQAAAGLVGLTGGPNEPSRAGVSIADISAGMYAYSGILSALLQRGRTGKGLRVQVTMLEAMAEWMNQVLYFGHYGGKPPGRFGASHPTIAPYGVHRTGNGSVIFSVQNEREFANFCEIVLGNRELAQDERFSSNTARVHNRPELTAIIEERFAPMTVAQAEALLDEAQIANAPMNDIEGVWNHPQLQARQRWREVATPGGPIGALLPPANLSGVEPVMGDVPALGAHSRQILAELGYDDGDIAALADKRTI
notes: pET16b, N-terminal His-tag, E. coli BL21(DE3), Ni-NTA purified
Purified protein
  Km: 42800 ± 17200 µM
  Vmax: 1.1 µmol/min/mg
  kcat/Km: 20 M⁻¹ s⁻¹
[8]
  Km: 15600 ± 2300 µM
  Vmax: 10.2 µmol/min/mg
  kcat/Km: 500 M⁻¹ s⁻¹
[9]
  Km: 37400 ± 8900 µM
  Vmax: 3.2 µmol/min/mg
  kcat/Km: 60 M⁻¹ s⁻¹
[10]
  Km: 900 ± 100 µM
  Vmax: 82 µmol/min/mg
  kcat/Km: 65200 M⁻¹ s⁻¹
[11]
  Km: 4000 ± 1700 µM
  Vmax: 53.2 µmol/min/mg
  kcat/Km: 9500 M⁻¹ s⁻¹
[12]
  Km: 760 ± 200 µM
  Vmax: 116 µmol/min/mg
  kcat/Km: 109000 M⁻¹ s⁻¹
[13]
  Km: 35600 ± 3200 µM
  Vmax: 35.6 µmol/min/mg
  kcat/Km: 700 M⁻¹ s⁻¹
